From patent US20110111461A1 (Hoffmann-La Roche, published 2011)

Columns and labels:
[1] = molecular target: T1, human epidermal growth factor receptor (EGFR) (human, UniProt P00533 25-1210); assay: flow cytometry on A431 cells
T1 construct: whole, on cells; also called HER-1; ErbB1
Experimental: (§1) The purified, monomeric humanized antibody variants were tested for binding to human epidermal growth factor receptor (EGFR, also referred to in the literature as HER-1 or ErbB1) on the A431 human epidermal cell line, using a flow cytometry-based assay. 200,000 cells (e.g., from human A431 cell line) in 180 μl FACS buffer (PBS containing 2% FCS and 5 mM EDTA) were transferred to 5 ml polystyrene tubes and 20 μl 10 fold concentrated anti-EGFR antibody (primary antibody) samples (1-5000 ng/ml final concentration) or PBS only were added. After gently mixing the samples, the tubes were incubated at 4° C. for 30 min in the dark. Subsequently, samples were washed twice with FACS buffer and pelleted at 300×g for 3 min. Supernatant was aspirated off and cells were taken up in 50 μl FACS buffer and 2 μl secondary antibody (anti-Fc-specific F(ab′)2-FITC fragments (Jackson Immuno Research Laboratories, USA)) was added and the tubes were incubated at 4° C. for 30 min. Samples were washed twice with FACS buffer and taken up in 500 μl of FACS buffer for analysis by Flow Cytometry. Binding was determined by plotting the geometric mean fluorescence against the antibody concentrations.
Only the I-HHA has strongly diminished binding activity (see FIG. 2). […] In this experiment, either the light chain, the heavy chain or both chains simultaneously of the ch-ICR62 were replaced by the above mentioned humanized constructs.

[2] = molecular target: T1, human epidermal growth factor receptor …; assay: flow cytometry on A431 cells (FIG. 4)
Experimental: as §1
FIGS. 4 and 5 compare the constructs of the series I-HLA1, I-HLA2, I-HLA3, I-HLA4, I-HLA5, and I-HLA6. […]

EC50 [1]: ~0.3 µg/mL | EC50 fold lower relative to I-HLA4 [2]: 2 fold
B1: chimeric rat-human ICR62 antibody (antibody, V domains shown)
VH: QVNLLQSGAALVKPGASVKLSCKGSGFTFTDYKIHWVKQSHGKSLEWIGYFNPNSGYSTYNEKFKSKATLTADKSTDTAYMELTSLTSEDSATYYCTRLSPGGYYVMDAWGQGASVTVSS
VL: DIQMTQSPSFLSASVGDRVTINCKASQNINNYLNWYQQKLGEAPKRLIYNTNNLQTGIPSRFSGSGSGTDYTLTISSLQPEDFATYFCLQHNSFPTFGAGTKLELKR
notes: also called ch-ICR62; chimeric ICR62
